Assay: yeast display, Sf9 membrane polyspecificity reagent, FACS + sequencing; frameworks hold sequencing errors
How it was run: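 Polyreactivity labels are assigned by the sorting gate from which each nanobody was recovered. The gates were low and high (top ~1%), set on anti-HA fluorescence for expression and streptavidin fluorescence for reagent binding. Before sorting, galactose-induced (36–48 hours) yeast display cells were stained for 1 hour at 4 °C with 10% biotinylated, detergent-solubilized Sf9 membrane reagent.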

Row | Sequence | polyreactivity (PSR sort gate)
1 | QVQLVESGGGLVQAGGSLRISCDASGSTFVANAMRSYREAPGKERELLAAISRSGGRTYYADSVKGRFTISRDNAKYTVYFQMNSLKPEDTAVYYCAADGYRSPVYANWGMGYWGQGSQVTVSS | high polyreactivity
2 | QVQLVESGGGLVQAGGSLRLSCAASGSTFVKYAMGWYRQAPGKERELVATITYSSGSTSYADSVKGRFTISRDNAKNTVYLQMNSLKPEDTAVYYCAKKDYTGYGYWGQGTQVTVSS | low polyreactivity
3 | QVQLVESGGGLVQAGGSLRLSCAASGNTLAANAMGWYRQAPGKERELVAAITYSGGSTYYADSVKGRFTISRDNAKNTVYLQMSSLKPEDTAVYDCNAPYVFSAGFDYWGQGTQVTVSS | low polyreactivity
4 | QVQIVESGGGKVQEGGSLRLSCAASGITFTWYDMGWYRQAPGKERELVAAITTDGGSTYYADSVKGRFTISRDNAKNTVYLQINSLKPEDTAVYYCAAAGYVPFPVVYEYWGQGTQVTVSS | high polyreactivity
5 | QVQLQERGDGLGQAVGSLRLSCAASGYISGYYYLGWYRQAPGKEGVVVAGIDAFGSRTNFADCVKGRFTISRDNAKNPVDLQMNSLKPEETAVYYCAARPDGDRLFSYWGQGPQVTVSS | low polyreactivity
6 | QVQLVESGGGLVQAGGRHRLTCAASGRTVGRYAMGWYRQAPGKEREFVAAISNRVGRTYYADSVKGRFTISRDNAKNTVYLQMNSLKPEDTAVYYCAADTAHVNVNYWGQGTQVTVSS | high polyreactivity
7 | QVQLVESGGGLVQAGGSLRLSCAASGRIFSRYVMGWYRQAPGKERELVAAITRNGGNTYYADSVTGRFTISRDNAKNTVYLQMNSLKPEDTAVYYCAGRAVLKSWAYYYWGQGTQVTVSS | high polyreactivity
8 | QVQLVESGGGLVQAGGSLRLSCAASGSIFYWYAMGWYRQAPGKERELVASIRWSGGTYYADSVKGRFTISRDNAKNTVYLQMNSLKPEDTAVYYCNKGGGRGHFEYWGQGTQVTVSS | low polyreactivity
9 | QVQLVESGGGLVQAGGSLRLSCAASGSIIQVYAMGWYRQAPGKERELVASITRTGGSTYYADSVKGSFTISRDNAKNTVYLQMNSLKPEDTAVYYCAARRVTSPFGSDSWGQGTQVTVSS | low polyreactivity
10 | QVQLVESWGGLVQAGGSLRLSCAASGNLFADYAMGWYRQAPGTERELVAAISRGGITSYADSVKGRFTISRDNAKNTVYLQMNSLKPEDTAVYYCATDRYDVYDSLGFGYWGQGSQVTVSS | low polyreactivity
11 | QVQLVESGGGLVQAGGSLRLSCAASGRTFISNAMGWYRQAPGKERELVAAITSTGGRTYYADSVKGRFTISRDNAKNTVYLQMNSLKPEDTAVYYCNTGKRRFYSMDYWGQGTQVTVSS | high polyreactivity
12 | QVQLVESGGGLVQAGGSLRLSCAASGSTFYIYAMGWYRQAPGKERELVARISGSTDYADSVKGRFTISRDNAKNTVYLQMNSLKPEDTAVYYCAARYVYPYWYGDYYWGQGTQVTVSS | low polyreactivity
13 | QVQLEESGGGLDQAGGSLRLSCAASGLILDYNDIGGYRQAAGQERELVASITGGGSTYYADSVKGRFRISRDNAKNTVYLQMNSLKPQDTSVYSCNADPVGVYCFDLDYWGQGTQVTVSS | low polyreactivity
14 | QVQLVESGGGLVQAGGRLRISCAASGSTFYFNAMGWYRQAPGKERELVAAITRGGSTYADSVKGRFTISRDNAKYTVYLQMNSMKPEDTAVYYCNAVYGVYDFIYWGQGTQVTVSS | low polyreactivity
15 | QVHLVESGGGLVQAGGSLRLSCAASGLIFVFYAMGWYRQAPGKERELVAAISRSGTSTYADSVKGRFTISRDNAKNTVYLQMNSLKPEDTAVYYCNAYRYYSPDGYWGQGTHVTVSS | low polyreactivity
16 | QVQLVESGGGLVQAGGSLRLSCAASGRTFNHYAMGWYRQAPGKERELVAGITISGGSTYYADSVKGRFTISRDHAKNTVDLQMNSLKPEATAVYYCNAVSDYYRQSKWTMDYWGQGTQVTVSS | low polyreactivity

Reference: the nanobody polyreactivity screen of Harvey et al. (2022)
